Tests used:
[1] = target: human melanocortin-4 (MC4) receptor (human)
[2] = target: human melanocortin-1 (MC1) receptor (human)

EC50 of cAMP response in transfected Hepa cells [1] [nM]	efficacy of cAMP response in transfected Hepa cells (% of the maximum response of α-MSH) [1]	cAMP generation in transfected L-cells (fold lower potency) [2]	Substance
20	45		γ-MSH (peptide)
		10	β-MSH (peptide)
100	75		Pro^11 γ-MSH (peptide)

Reference: patent publication US5703220
